Reference: PMC7378745

Key:
Assay in all cases: Tox-Luc (ToxR-TM-MBP) TM domain dimerisation assay in E. coli, luciferase read-out
[1] = target: YT/LL mutated human CD28 TM domain in the ToxLuc construct (ToxR-TM-MBP); settings: parent: est. 23000; read off a plot
[2] = target: Y145L/T150L (YT/LL) mutated mouse CD28 TM domain in the ToxLuc construct (ToxR-TM-MBP); settings: read off a plot
[3] = target: mutant GpA (G83I) TM domain in the ToxLuc construct (ToxR-TM-MBP); settings: parent: est. 5500; read off a plot

WT human CD28 TM domain in the ToxLuc construct (ToxR-TM-MBP) YT/LL
response (Relative Light units) [1]: 2900

WT mouse CD28 TM domain in the ToxLuc construct (ToxR-TM-MBP) Y145L; T150L
response (Relative Light units) ([2]; parent: est. 2500): 270
response (Relative Light units) ([2]; parent: est. 19000): 3100

wild type (WT) GpA TM domain in the ToxLuc construct (ToxR-TM-MBP) G83I
response (Relative Light units) [3]: 700
